According to US20140086936:

Molecular target: hemagglutinin (HA0) of influenza A/Puerto Rico/8/34 (PR8) virus, P03452

B1: Recombinant purified human matriptase (amino acids 596-855) (protein)
chain: GSDEKDCDCGLRSFTRQARVVGGTDADEGEWPWQVSLHALGQGHICGASLISPNWLVSAAHCYIDDRGFRYSDPTQWTAFLGLHDQSQRSAPGVQERRLKRIISHPFFNDFTFDYDIALLELEKPAEYSSMVRPICLPDASHVFPAGKAIWVTGWGHTQYGGTGALILQKGEIRVINQTTCENLLPQQITPRMMCVGFLSGGVDSCQGDSGGPLSSVEADGRIFQAGVVSWGDGCAQRNKPGVYTRLPLFRDWIKENTGV
cleavage of HA0 to HA1, Western blot: matriptase was able to cleave viral HA
